Our source for the self-aminoacylation values is the supplement of paper PMC9233669.

Variants at the floor of the assay were thinned out.

Series [1] concerns biotinyl-Leu-oxazolone. The experiment in a line: self-aminoacylation, catalytic enhancement (BLO) (fold over background); higher = more active; k-Seq, kA / k0A0; sequences stand for … in GGGAAUGGAUCCACAUCUACGAAUUC…UUCACUGCAGACUUGACGAAGCUG
Summed up: (§1)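 Each biotinyl-aminoacyl-oxazolone, at 2–1250 μM, was incubated with mutagenized RNA pools (0.43 μM) carrying a 21-nt variable region. The 50 μL reactions contained HEPES/NaCl/KCl/MgCl2/CaCl2 buffer with 5% acetonitrile at pH 6.9–7.0 and ran for 90 minutes at room temperature. After streptavidin capture, RNA was measured by qPCR in triplicate and by Illumina sequencing, and catalytic enhancement was calculated as median kA over the uncatalyzed rate from a pseudo-first-order fit of per-sequence fraction reacted.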

Series [2] concerns biotinyl-Phe-oxazolone. The experiment in a line: self-aminoacylation, catalytic enhancement (BFO) (fold over background); higher = more active; k-Seq, kA / k0A0; sequences stand for … in GGGAAUGGAUCCACAUCUACGAAUUC…UUCACUGCAGACUUGACGAAGCUG
Summed up:
as §1

For series [3], the system named is biotinyl-Met-oxazolone. The experiment in a line: self-aminoacylation, catalytic enhancement (BMO) (fold over background); higher = more active; k-Seq, kA / k0A0; sequences stand for … in GGGAAUGGAUCCACAUCUACGAAUUC…UUCACUGCAGACUUGACGAAGCUG
The method, boiled down: as §1

The subject of series [4] is biotinyl-Ile-oxazolone. The series can be described thus: self-aminoacylation, catalytic enhancement (BIO) (fold over background); higher = more active; k-Seq, kA / k0A0; sequences stand for … in GGGAAUGGAUCCACAUCUACGAAUUC…UUCACUGCAGACUUGACGAAGCUG
The method, boiled down: as §1

In series [5] the test system is biotinyl-Trp-oxazolone. The series can be described thus: self-aminoacylation, catalytic enhancement (BWO) (fold over background); higher = more active; k-Seq, kA / k0A0; sequences stand for … in GGGAAUGGAUCCACAUCUACGAAUUC…UUCACUGCAGACUUGACGAAGCUG
The method, boiled down:
as §1

Series [6] has as its system biotinyl-Val-oxazolone. The experiment in a line: self-aminoacylation, catalytic enhancement (BVO) (fold over background); higher = more active; k-Seq, kA / k0A0; sequences stand for … in GGGAAUGGAUCCACAUCUACGAAUUC…UUCACUGCAGACUUGACGAAGCUG
Summed up:
as §1

“CCACUUCAAACCAUCGGUCUG [Fam1A.1 aminoacylation ribozyme variant]”: the self-aminoacylation in series [1] amounted to 1.24; in series [2], 1.49; in series [3] it was 0.947; in series [4], 1.31; in series [5], 1.16; in series [6] it was 1.29.

In the case of “CCAGAAUUCAAGCAAUCGGUC [Fam1B.1 aminoacylation ribozyme variant]”, the self-aminoacylation worked out at 2.3 in series [1]; 2.26 in series [2]; 1.65 in series [3]; 1.91 in series [4]; 1.81 in series [5]; 1.6 in series [6].

With “CCAGACAUCAAGCAAUCGGUC [Fam1B.1 aminoacylation ribozyme variant]”, the self-aminoacylation in series [1] was 0.896; in series [2], 1.06; in series [3], 0.825; in series [4], 0.911; in series [5], 0.802; in series [6], 0.993.

Consider “CCAGACUUCAAGCAACCGGUC [Fam1B.1 aminoacylation ribozyme variant]”, for which the self-aminoacylation stood at 1.02 in series [1]; 1.53 in series [2]; 0.698 in series [3]; 1.47 in series [4]; 2 in series [5]; 1.36 in series [6].

As to “CCAGACUUCAAGCAAUCGGCC [Fam1B.1 aminoacylation ribozyme variant]”, the self-aminoacylation amounted to 4.53 in series [1]; 17 in series [2]; 4.19 in series [3]; 3.33 in series [4]; 6.87 in series [5]; 3.43 in series [6].

For the sequence “CCAGACUUCAAGCAAUCGGUA [Fam1B.1 aminoacylation ribozyme variant]”, the self-aminoacylation in series [1] came out at 1.16; in series [2], 1.22; in series [3], 1.66; in series [4], 1.41; in series [5] it was 1.75; in series [6] it was 1.4.

“CCAGACUUCAAGCAAUCGGUG [Fam1B.1 aminoacylation ribozyme variant]”: the self-aminoacylation in series [1] was 8.51; in series [2], 29.2; in series [3] it was 6.21; in series [4], 4.56; in series [5] it was 7.25; in series [6], 4.1.

For the sequence “CCAGACUUCAAGCCAUCGGUC [Fam1B.1 aminoacylation ribozyme variant]”, the self-aminoacylation was 1.24 in series [1]; 0.714 in series [2]; 1.17 in series [3]; 1.34 in series [4]; 1.33 in series [5]; 1.46 in series [6].

In the case of “CCAUACUACAAGCAAUCGGUC [Fam1B.1 aminoacylation ribozyme variant]”, the self-aminoacylation in series [1] was 0.772; in series [2] it was 0.942; in series [3], 0.696; in series [4], 0.884; in series [5], 0.655; in series [6] it was 0.779.

Turning to “CCAUACUUAAAGCAAUCGGUC [Fam1B.1 aminoacylation ribozyme variant]”, the self-aminoacylation was 0.802 in series [1]; 0.813 in series [2]; 0.804 in series [3]; 0.92 in series [4]; 0.674 in series [5]; 0.904 in series [6].

For the sequence “CCAUACUUCAAGAAAUCGGUC [Fam1B.1 aminoacylation ribozyme variant]”, the self-aminoacylation in series [1] was 0.87; in series [2], 5.18; in series [3], 0.777; in series [4], 0.907; in series [5], 4.39; in series [6] it was 0.787.

As for “CCAUACUUCAAGCAAGCGGUC [Fam1B.1 aminoacylation ribozyme variant]”, the self-aminoacylation in series [1] is 0.875; in series [2] it was 0.737; in series [3] it was 0.775; in series [4], 1.09; in series [5] it was 0.726; in series [6], 1.03.

As for “CCAUACUUCAAGCAAUCGGAC [Fam1B.1 aminoacylation ribozyme variant]”, the self-aminoacylation in series [1] was 0.856; in series [2], 1.21; in series [3], 1.17; in series [4], 1.01; in series [5], 0.768; in series [6], 1.06.

For “CCAUACUUCAAGCAAUCGGUU [Fam1B.1 aminoacylation ribozyme variant]”, the self-aminoacylation in series [1] worked out at 1.61; in series [2] it was 3.48; in series [3] it was 1.17; in series [4], 1.61; in series [5], 2.98; in series [6], 1.71.

With “CCAUACUUCAAGCAAUGGGUC [Fam1B.1 aminoacylation ribozyme variant]”, the self-aminoacylation came out at 0.926 in series [1]; 0.918 in series [2]; 0.972 in series [3]; 1.04 in series [4]; 0.627 in series [5]; 1 in series [6].

With “CCAUACUUCAAGCACUCGGUC [Fam1B.1 aminoacylation ribozyme variant]”, the self-aminoacylation in series [1] is 0.962; in series [2], 1.11; in series [3], 0.904; in series [4], 1.01; in series [5], 0.69; in series [6], 1.07.

For “CCAUACUUCAAGCUAUCGGUC [Fam1B.1 aminoacylation ribozyme variant]”, the self-aminoacylation was 0.952 in series [1]; 0.984 in series [2]; 0.801 in series [3]; 1.05 in series [4]; 0.697 in series [5]; 1.09 in series [6].

As to “CCAUACUUCAAGGAAUCGGUC [Fam1B.1 aminoacylation ribozyme variant]”, the self-aminoacylation was found to be 1.07 in series [1]; 3.91 in series [2]; 1.06 in series [3]; 0.976 in series [4]; 3.57 in series [5]; 0.934 in series [6].

Consider “CCCAACUUCAAGCAAUCGGUC [Fam1B.1 aminoacylation ribozyme variant]”, for which the self-aminoacylation in series [1] was found to be 2.34; in series [2], 78.4; in series [3], 1.49; in series [4], 1.56; in series [5], 40.9; in series [6] it was 1.74.

As to “CCCCACCUCAAGCAAUCGGUC [Fam1B.1 aminoacylation ribozyme variant]”, the self-aminoacylation in series [1] is 1.48; in series [2], 5.97; in series [3], 1.48; in series [4], 1.73; in series [5], 4.87; in series [6], 2.2.

In the case of “CCCCACUUCAAGCAAUCGGAC [Fam1B.1 aminoacylation ribozyme variant]”, the self-aminoacylation in series [1] worked out at 1.19; in series [2], 2.8; in series [3], 1.44; in series [4] it was 1.45; in series [5], 2.45; in series [6] it was 1.52.

Consider “CCCCACUUCAAGCAAUCGGCC [Fam1B.1 aminoacylation ribozyme variant]”, for which the self-aminoacylation in series [1] turned out to be 2.75; in series [2], 20.8; in series [3] it was 3.04; in series [4], 2.74; in series [5] it was 11.3; in series [6] it was 3.8.

Turning to “CCCCACUUCAAGCAAUCGGUG [Fam1B.1 aminoacylation ribozyme variant]”, the self-aminoacylation in series [1] is 13.9; in series [2], 75.4; in series [3], 11; in series [4], 6.57; in series [5], 12.5; in series [6], 7.84.

Consider “CCCCACUUCAAGCAAUCGGUU [Fam1B.1 aminoacylation ribozyme variant]”, for which the self-aminoacylation in series [1] was 4.7; in series [2], 12.7; in series [3], 3.35; in series [4], 2.66; in series [5], 16.9; in series [6], 3.68.

Turning to “CCCCACUUCAAGCAAUCGUUC [Fam1B.1 aminoacylation ribozyme variant]”, the self-aminoacylation in series [1] came out at 0.697; in series [2] it was 1.77; in series [3] it was 0.697; in series [4], 0.898; in series [5], 1.12; in series [6] it was 0.849.
